Tests used:
[1] = target: recombinant EsGLUT4 extracellular region (between TM1 and TM2) (Eriocheir sinensis); test: BLI; ForteBio Octet RED96; biotinylated rEsGLUT4 region (50 µg/ml) immobilised on streptavidin (SA) sensors; four serial concentrations of CHHBP, highest 1 µM (intracellular region) and 0.38 µM (extracellular region); association 300 s, dissociation 600 s; room temperature; physiological saline for crab
[2] = target: recombinant EsGLUT4 intracellular region (between TM6 and TM7) (Eriocheir sinensis); test: as above

“recombinant CHH binding protein (CHHBP), an E. sinensis flotillin-like protein (natural protein)” was tested, and the Kd [1] was 2.52 nM and the Kd [2] was 6.81 nM.
